Laboratory results: patent US20050066376

Tested on: T1, Minos transposase (fly cDNA ILMi) (Drosophila hydei)
T1 sequence: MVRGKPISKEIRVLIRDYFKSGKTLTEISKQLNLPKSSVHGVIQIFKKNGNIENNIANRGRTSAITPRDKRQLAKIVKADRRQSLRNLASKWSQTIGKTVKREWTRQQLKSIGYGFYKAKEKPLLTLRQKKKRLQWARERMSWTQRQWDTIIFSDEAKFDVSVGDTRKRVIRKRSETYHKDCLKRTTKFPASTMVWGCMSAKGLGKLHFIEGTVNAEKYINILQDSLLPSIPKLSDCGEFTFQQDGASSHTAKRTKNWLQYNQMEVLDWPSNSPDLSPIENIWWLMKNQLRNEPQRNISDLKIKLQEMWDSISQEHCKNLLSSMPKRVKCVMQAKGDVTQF
Experiment: cell_activity
Conditions: germ-line transposition frequency in mouse, 12 events in 146 transposon-positive progeny; TA target site duplication

Substance “Minos transposon MiCMVGFP (Minos inverted repeats flanking CMV-GFP)” has an activity of 8.2%.
